Series [1] has as its target T1, nucleolin (C23) (UniProt P19338 2-710). The series can be described thus: EMSA. On the technique in general: In EMSA bound probe runs differently from free probe, usually more slowly.
Series [2] deals with T1, nucleolin (C23). The series can be described thus: competition.
Series [3] concerns the target T1, nucleolin (C23). The experiment in a line: EMSA. This is another data set of the same source.

T1 sequence (P19338 2-710): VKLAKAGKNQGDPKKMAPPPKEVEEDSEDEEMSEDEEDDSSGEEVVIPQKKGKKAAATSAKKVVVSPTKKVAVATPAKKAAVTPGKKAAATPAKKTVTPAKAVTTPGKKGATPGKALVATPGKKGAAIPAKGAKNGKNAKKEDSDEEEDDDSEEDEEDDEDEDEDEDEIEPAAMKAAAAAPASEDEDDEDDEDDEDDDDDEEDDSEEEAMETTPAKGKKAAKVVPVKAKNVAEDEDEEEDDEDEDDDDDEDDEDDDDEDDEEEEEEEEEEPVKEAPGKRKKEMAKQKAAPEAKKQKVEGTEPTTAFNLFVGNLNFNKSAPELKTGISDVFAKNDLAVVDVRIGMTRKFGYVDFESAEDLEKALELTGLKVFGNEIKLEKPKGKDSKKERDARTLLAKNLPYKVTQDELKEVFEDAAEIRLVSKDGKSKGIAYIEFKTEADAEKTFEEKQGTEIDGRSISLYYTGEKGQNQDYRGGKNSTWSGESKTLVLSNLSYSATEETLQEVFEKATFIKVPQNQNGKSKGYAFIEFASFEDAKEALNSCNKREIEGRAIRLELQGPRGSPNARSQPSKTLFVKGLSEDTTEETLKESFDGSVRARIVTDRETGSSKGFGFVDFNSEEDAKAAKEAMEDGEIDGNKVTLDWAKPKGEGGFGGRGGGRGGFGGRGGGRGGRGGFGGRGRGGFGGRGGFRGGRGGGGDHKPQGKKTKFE

B1: ssRNA 2 (ssRNA)
RNA: UGCUUACGUAGCGUGCCUUA
Regarding B1, the binding result in series [1] is on record as “binds”.

B2: VEGF G4 (unlabelled) (structured_DNA)
DNA: TTGGGCGGGCCGGGGGCGGG
Take B2: the binding result in series [2] was “binds”.

B3: VEGF G4 (structured_DNA)
DNA: TTGGGCGGGCCGGGGGCGGG
Regarding B3, the binding result in series [3] was “binds”.
